Results reported in patent US20090324601A1 (published 2009).
Residue numbers refer to the chain shown, from its start.

B1: 3.87.1.1 (antibody, V domains shown)
VH: QVQLVESGGGVVQPGRSLRLSCAASGFTFSSYGMHWVRQAPGKGLEWVAVIWYDRSNKYYADSVKGRFTISRDNSKNTLYLQMNSLRAEDTAVYYCAGGRSRGAFDYWGQGTLVTVSS
VL: DIQMTQSPSSVSASVGDRVTITCRASQGISSWLAWYQQKPGKAPKLLIFAASSLQSGVPSRFSGSGSGTDFTLTISSLQPEDFATYYCQRTNSFPRTFGQGTKVEIK
B2: 3.818.4 (antibody, V domains shown)
VH: EVQLVESGGGLVQPGGSLRLSCAASGFTFSSYSMNWVRQAPGKGLEWVSYISGSSTTMYYADSVKGRFTISRDNAKNSLYLQMNSLRDEDTAVYYCARLRHFDWSYAFDIWGQGTMVTVSS
VL: B1 VL with A13T, K39R, F49Y, Y87F, R90Q, T91A, N92T, R96F, Q100P, E105G
B3: 2.2002.3 (antibody, V domains shown)
VH: QVQLVESGGGVVQPGRSLRVSCAASGFMFRSYGMHWVRQAPGKGLEWVAVIWHDGSNKNHGDSVKGRFTISRDNSKNTLYLQMNSLRAEDTAVYYCARGRLAGGGPYYYYYYGMDVWGQGTTVTVSS
VL: not shown
B4: 2.1954.2 (antibody, V domains shown)
VH: QVQLVESGGGVVQPGRSLRLSCAASGFSFSIYGMHWVRQAPGKGLEWVAVIWFDGSNKYYADSVKGRFTISRDNSKNTLYLQMNSLRAEDTALYYCARDKASYYGSGMDYWGQGTLVTVSS
VL: EIVLTQSPGTLSLSPGERATLSCRASQSVSSTYLAWYQHRPGQAPRLLISGASRRATGIPDRFSGSGSGTDFTLTISRLEPEDFAVYYCQHYGSSFTWTFGQGTKVEIK
B5: 3.457.3.1 (antibody, V domains shown)
VH: B1 VH with Y107F
VL: B1 VL with P40A, F49Y, A50S
B6: 3.805.1.3 (antibody, V domains shown)
VH: B1 VH
VL: B1 VL with K45N, F49Y, S93N
B7: 3.772.2 (antibody, V domains shown)
VH: B1 VH with Y107F
VL: B1 VL with G28D, P40A, F49Y
B8: 3.472.1.1 (antibody, V domains shown)
VH: B1 VH with A61V
VL: B1 VL with G28D, N92S
B9: 5.1.1.1 (antibody, V domains shown)
VH: QVQLVQSGAEVKKPGASVKVSCKASGYTFTSYDINWVRQATGQGLEWMGWMNPNSGNTGYAQQFQGRVTMTRNTSITTAYMELSSLRSEDTAVYYCAREEYSSSLFDSWGQGTLVTVSS
VL: DIQMTQSPSSLSASVGDRVTITCRASQGIRNNLGWFQQKPGKAPKRLIYAASSLQSGVPSRFSGSGSGTKFTLTISSLQPEDFATYFCLQHNRYPLTFGGGTKVEIK
B10: 2.1576.1.2 (antibody, V domains shown)
VH: EVQLVESGGGLVQPGGSLRLSCAASGFTFSSYWMSWVRQAPGKGLEWVANIKQDGSEKYYVDSVKGRFTISRDNAKNSLYLQMNSLRAEDTAVYYCARWGVFGSGSYYIPFDYWGQGTLVTVSS
VL: B9 VL with N32Y, G34A, R46S, R61T, K70H, T85S, L89Q, H91Y, N92E, R93I
B11: 3.818.4 (antibody, V domains shown)
VH: B2 VH
VL: B1 VL with A13T, K39R, F49Y, Y87F, R90Q, T91A, N92T, R96F, Q100P, E105G
B12: 3.87.1.1 (antibody, V domains shown)
VH: B1 VH
VL: B1 VL
B13: 3.625.1.7 (antibody, V domains shown)
VH: B1 VH with N84D
VL: B1 VL with F49Y
B14: 2.2002.3 (antibody, V domains shown)
VH: B3 VH
VL: not shown
B15: 2.1954.2 (antibody, V domains shown)
VH: B4 VH
VL: B4 VL
B16: 5.9.3 (antibody, V domains shown)
VH: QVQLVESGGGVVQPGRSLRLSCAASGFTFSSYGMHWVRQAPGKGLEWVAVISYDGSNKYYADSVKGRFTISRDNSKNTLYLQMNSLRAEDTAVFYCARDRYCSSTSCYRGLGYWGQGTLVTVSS
VL: DIQMTQSPSSLSASVGDRVSITCRASQGIRNDLGWYQQKPGKAPTRLIYAASSLQSGVPSRFSGSGSGTEFTLTISSLQPEDFASYYCLQHNSFPWTFGQGTKVEIK
B17: 3.23.2 (antibody, V domains shown)
VH: EVQLVESGGGLVQPGGSLRLSCAASGFTFSNFWMSWVRQAPGKGLEWVANIKHGGSEKYYVDSVKGRFTISRDNAKNSLYLQMNRLRAEDTAVYYCARDPMYYFDYWGQGTLVTVSS
VL: B16 VL with S20T, G28D, G34D, T45K, S85T, S93G, F94Y, W96R, T97S, V104L
B18: 3.457.3.1 (antibody, V domains shown)
VH: B1 VH with Y107F
VL: B1 VL with P40A, F49Y, A50S
B19: 3.805.1.3 (antibody, V domains shown)
VH: B1 VH
VL: B1 VL with K45N, F49Y, S93N
B20: 3.472.1.1 (antibody, V domains shown)
VH: B1 VH with A61V
VL: B1 VL with G28D, N92S
B21: 3.772.2 (antibody, V domains shown)
VH: B1 VH with Y107F
VL: B1 VL with G28D, P40A, F49Y
B22: 3.23.3 (antibody, V domains shown)
VH: QVQLVESGGGVVQPGRSLRLSCAASGFTFSRYGMHWVRQAPGKGLEWVAVIWYDGRNKYYVDSVKGRFTISRDNSKNTLYLQMNSLRAEDTAVYYCVGVGITVTGAFDYWGQGTLVTVSS
VL: EIVMTQSPATLSVSPGERATLSCRASQSVRSNLAWYQQKPGQAPRLLIYGASTRVTDIPTRFSGSGSGTEFTLSISSLQSEDFAVYYCQQYNNWPRTFGQGTKVEIK
B23: 4.16.2 (antibody, V domains shown)
VH: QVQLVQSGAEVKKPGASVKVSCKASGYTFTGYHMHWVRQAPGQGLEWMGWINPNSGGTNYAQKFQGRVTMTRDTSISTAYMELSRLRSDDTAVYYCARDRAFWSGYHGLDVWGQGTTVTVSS
VL: DIQMTQSPSSLSASVGDRVTITCRASQVIANYLAWYQQKPGKVPKLLIYAASTLQSGVPSRFSGSGSGTDFTLTISSLQPEDVATYYCHTYKSAPWTFGQGTKVEIK

Target: PDGFR-alpha on MG-63 cells (human, UniProt P16234 24-1089)
Assay: cell-based or functional assay

Chain of PDGFR-alpha on MG-63 cells (P16234 24-1089): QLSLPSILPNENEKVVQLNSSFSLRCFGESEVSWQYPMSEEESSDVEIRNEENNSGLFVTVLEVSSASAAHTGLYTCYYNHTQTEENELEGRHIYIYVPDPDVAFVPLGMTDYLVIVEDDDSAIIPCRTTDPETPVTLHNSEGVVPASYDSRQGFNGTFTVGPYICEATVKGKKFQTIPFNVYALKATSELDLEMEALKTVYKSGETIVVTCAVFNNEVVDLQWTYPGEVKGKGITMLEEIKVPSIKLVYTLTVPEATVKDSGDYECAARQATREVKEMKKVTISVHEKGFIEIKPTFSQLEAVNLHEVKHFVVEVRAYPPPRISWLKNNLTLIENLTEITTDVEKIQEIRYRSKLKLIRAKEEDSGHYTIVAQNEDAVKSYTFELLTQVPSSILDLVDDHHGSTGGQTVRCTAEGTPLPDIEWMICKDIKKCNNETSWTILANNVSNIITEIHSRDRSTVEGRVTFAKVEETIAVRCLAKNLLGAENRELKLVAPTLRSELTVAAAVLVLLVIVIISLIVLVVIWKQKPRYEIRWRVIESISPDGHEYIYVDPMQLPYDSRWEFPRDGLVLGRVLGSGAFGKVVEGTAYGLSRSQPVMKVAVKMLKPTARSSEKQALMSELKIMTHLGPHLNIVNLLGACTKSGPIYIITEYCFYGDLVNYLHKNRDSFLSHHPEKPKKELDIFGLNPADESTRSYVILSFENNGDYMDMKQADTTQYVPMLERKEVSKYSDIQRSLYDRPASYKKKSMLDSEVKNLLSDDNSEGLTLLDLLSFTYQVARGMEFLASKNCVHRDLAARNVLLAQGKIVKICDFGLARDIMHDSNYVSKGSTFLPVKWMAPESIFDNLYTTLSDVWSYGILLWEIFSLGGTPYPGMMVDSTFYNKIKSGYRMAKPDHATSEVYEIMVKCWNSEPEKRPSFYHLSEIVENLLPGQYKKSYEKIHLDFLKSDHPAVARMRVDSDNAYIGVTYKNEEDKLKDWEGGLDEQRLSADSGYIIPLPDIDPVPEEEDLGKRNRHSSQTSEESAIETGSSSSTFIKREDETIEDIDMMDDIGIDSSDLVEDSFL

Binder	Average pTyr Inhibition [%]
B1	> 100
B2	> 100
B3	> 100
B4	> 100
B5	> 100
B6	92
B7	91
B8	95

Target: PDGFR-alpha on human osteosarcoma MG-63 cells (human, UniProt P16234 24-1089)
Assay: cell-based or functional assay

Chain of PDGFR-alpha on human osteosarcoma MG-63 cells (P16234 24-1089): as above

Binder	Proliferation Assay: IC50 ng/ml (1-6-06) [ng/mL]	pTyr Assay: % Inhibition @ 2 µg/ml [%]
B9	> 10000	77
B10	> 10000	65
B11	4600	92
B12	6240	69
B13	3820	-3
B14	–	-9
B15	–	-3
B16	2.2	31
B17	150	26
B18	–	85
B19	1020	58
B20	–	61
B21	168	56
B22	61.9	84
B23	> 10000	74
